Measurements as given in patent publication US20250269012A1 (AKAMIS BIO, published 2025).

T1: EpCAM (human, UniProt P16422 24-314)
T1 construct: whole, on cells; also called EpCAM cell surface target antigen on A549 and SKOV3 cells
T1 sequence (looked up): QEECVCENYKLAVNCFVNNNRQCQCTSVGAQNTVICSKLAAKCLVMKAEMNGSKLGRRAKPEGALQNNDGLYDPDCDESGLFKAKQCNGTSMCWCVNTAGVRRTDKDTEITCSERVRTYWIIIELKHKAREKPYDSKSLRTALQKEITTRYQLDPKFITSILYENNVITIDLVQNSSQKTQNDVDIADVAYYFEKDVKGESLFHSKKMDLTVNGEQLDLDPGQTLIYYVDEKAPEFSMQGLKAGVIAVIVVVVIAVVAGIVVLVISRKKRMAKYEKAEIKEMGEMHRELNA

B1: anti-EpCAM-ScFv-rigid linker-human CD19 EC domain fusion protein (without a C-terminal tag) (other)
chain: ELVMTQSPSSLTVTAGEKVTMSCKSSQSLLNSGNQKNYLTWYQQKPGQPPKLLIYWASTRESGVPDRFTGSGSGTDFTLTISSVQAEDLAVYYCQNDYSYPLTFGAGTKLEIKGGGGSGGGGSGGGGSEVQLLEQSGAELVRPGTSVKISCKASGYAFTNYWLGWVKQRPGHGLEWIGDIFPGSGNIHYNEKFKGKATLTADKSSSTAYMQLSSLTFEDSAVYFCARLRNWDEPMDYWGQGTTVTVSSTPSHLSHILPSFGLPTFNPEEPLVVKVEEGDNAVLQCLKGTSDGPTQQLTWSRESPLKPFLKLSLGLPGLGIHMRPLAIWLFIFNVSQQMGGFYLCQPGPPSEKAWQPGWTVNVEGSGELFRWNVSDLGGLGCGLKNRSSEGPSSPSGKLMSPKLYVWAKDRPEIWEGEPPCVPPRDSLNQSLSQDLTMAPGSTLWLSCGVPPDSVSRGPLSWTHVHPKGPKSLLSLELKDDRPARDMWVMETGLLLPRATAQDAGKYYCHRGNLTMSFHLEITAR
notes: also called bispecific protein of NG-1114; bispecific protein of NG-1116
B2: anti-EpCAM-ScFv-human CD19 EC domain fusion protein (without a C-terminal tag) (other)
chain: ELVMTQSPSSLTVTAGEKVTMSCKSSQSLLNSGNQKNYLTWYQQKPGQPPKLLIYWASTRESGVPDRFTGSGSGTDFTLTISSVQAEDLAVYYCQNDYSYPLTFGAGTKLEIKGGGGSGGGGSGGGGSEVQLLEQSGAELVRPGTSVKISCKASGYAFTNYWLGWVKQRPGHGLEWIGDIFPGSGNIHYNEKFKGKATLTADKSSSTAYMQLSSLTFEDSAVYFCARLRNWDEPMDYWGQGTTVTVSSGGGGSPEEPLVVKVEEGDNAVLQCLKGTSDGPTQQLTWSRESPLKPFLKLSLGLPGLGIHMRPLAIWLFIFNVSQQMGGFYLCQPGPPSEKAWQPGWTVNVEGSGELFRWNVSDLGGLGCGLKNRSSEGPSSPSGKLMSPKLYVWAKDRPEIWEGEPPCVPPRDSLNQSLSQDLTMAPGSTLWLSCGVPPDSVSRGPLSWTHVHPKGPKSLLSLELKDDRPARDMWVMETGLLLPRATAQDAGKYYCHRGNLTMSFHLEITARPVLWHWLLRTGGWK
notes: also called bispecific protein of NG-1109
B3: anti-EpCAM-ScFv-rigid linker-RAET1G3 fusion protein (without a C-terminal tag) (other)
chain: ELVMTQSPSSLTVTAGEKVTMSCKSSQSLLNSGNQKNYLTWYQQKPGQPPKLLIYWASTRESGVPDRFTGSGSGTDFTLTISSVQAEDLAVYYCQNDYSYPLTFGAGTKLEIKGGGGSGGGGSGGGGSEVQLLEQSGAELVRPGTSVKISCKASGYAFTNYWLGWVKQRPGHGLEWIGDIFPGSGNIHYNEKFKGKATLTADKSSSTAYMQLSSLTFEDSAVYFCARLRNWDEPMDYWGQGTTVTVSSTPSHLSHILPSFGLPTFNGLADPHSLCYDITVIPKFRPGPRWCAVQGQVDEKTFLHYDCGSKTVTPVSPLGKKLNVTTAWKAQNPVLREVVDILTEQLLDIQLENYIPKENRMWTTVHPGARKMKEKWENDKDMTMSFHYISMGDCTGWLEDFLMGMDSTLEPSAGGTV
notes: also called bispecific protein of NG-1118
B4: anti-EpCAM-ScFv-RAET1G3 fusion protein (without a C-terminal tag) (other)
chain: ELVMTQSPSSLTVTAGEKVTMSCKSSQSLLNSGNQKNYLTWYQQKPGQPPKLLIYWASTRESGVPDRFTGSGSGTDFTLTISSVQAEDLAVYYCQNDYSYPLTFGAGTKLEIKGGGGSGGGGSGGGGSEVQLLEQSGAELVRPGTSVKISCKASGYAFTNYWLGWVKQRPGHGLEWIGDIFPGSGNIHYNEKFKGKATLTADKSSSTAYMQLSSLTFEDSAVYFCARLRNWDEPMDYWGQGTTVTVSSGGGGSGLADPHSLCYDITVIPKFRPGPRWCAVQGQVDEKTFLHYDCGSKTVTPVSPLGKKLNVTTAWKAQNPVLREVVDILTEQLLDIQLENYIPKENRMWTTVHPGARKMKEKWENDKDMTMSFHYISMGDCTGWLEDFLMGMDSTLEPSAGGTV
notes: also called bispecific protein of NG-1111
B5: anti-EpCAM-ScFv-flexible linker-human CD19 EC domain fusion protein (without a C-terminal tag) (other)
chain: ELVMTQSPSSLTVTAGEKVTMSCKSSQSLLNSGNQKNYLTWYQQKPGQPPKLLIYWASTRESGVPDRFTGSGSGTDFTLTISSVQAEDLAVYYCQNDYSYPLTFGAGTKLEIKGGGGSGGGGSGGGGSEVQLLEQSGAELVRPGTSVKISCKASGYAFTNYWLGWVKQRPGHGLEWIGDIFPGSGNIHYNEKFKGKATLTADKSSSTAYMQLSSLTFEDSAVYFCARLRNWDEPMDYWGQGTTVTVSSGAGGSGGSSGSDGASGSRPEEPLVVKVEEGDNAVLQCLKGTSDGPTQQLTWSRESPLKPFLKLSLGLPGLGIHMRPLAIWLFIFNVSQQMGGFYLCQPGPPSEKAWQPGWTVNVEGSGELFRWNVSDLGGLGCGLKNRSSEGPSSPSGKLMSPKLYVWAKDRPEIWEGEPPCVPPRDSLNQSLSQDLTMAPGSTLWLSCGVPPDSVSRGPLSWTHVHPKGPKSLLSLELKDDRPARDMWVMETGLLLPRATAQDAGKYYCHRGNLTMSFHLEITAR
notes: also called bispecific protein of NG-1113; bispecific protein of NG-1115
B6: anti-EpCAM-ScFv-flexible linker-RAET1G3 fusion protein (without a C-terminal tag) (other)
chain: ELVMTQSPSSLTVTAGEKVTMSCKSSQSLLNSGNQKNYLTWYQQKPGQPPKLLIYWASTRESGVPDRFTGSGSGTDFTLTISSVQAEDLAVYYCQNDYSYPLTFGAGTKLEIKGGGGSGGGGSGGGGSEVQLLEQSGAELVRPGTSVKISCKASGYAFTNYWLGWVKQRPGHGLEWIGDIFPGSGNIHYNEKFKGKATLTADKSSSTAYMQLSSLTFEDSAVYFCARLRNWDEPMDYWGQGTTVTVSSGAGGSGGSSGSDGASGSRGLADPHSLCYDITVIPKFRPGPRWCAVQGQVDEKTFLHYDCGSKTVTPVSPLGKKLNVTTAWKAQNPVLREVVDILTEQLLDIQLENYIPKENRMWTTVHPGARKMKEKWENDKDMTMSFHYISMGDCTGWLEDFLMGMDSTLEPSAGGTV
notes: also called bispecific protein of NG-1117
B7: RAET1G3-anti-EpCAM-ScFv fusion protein (without a C-terminal tag) (other)
chain: GLADPHSLCYDITVIPKFRPGPRWCAVQGQVDEKTFLHYDCGSKTVTPVSPLGKKLNVTTAWKAQNPVLREVVDILTEQLLDIQLENYIPKENRMWTTVHPGARKMKEKWENDKDMTMSFHYISMGDCTGWLEDFLMGMDSTLEPSAGGTVGGGGSELVMTQSPSSLTVTAGEKVTMSCKSSQSLLNSGNQKNYLTWYQQKPGQPPKLLIYWASTRESGVPDRFTGSGSGTDFTLTISSVQAEDLAVYYCQNDYSYPLTFGAGTKLEIKGGGGSGGGGSGGGGSEVQLLEQSGAELVRPGTSVKISCKASGYAFTNYWLGWVKQRPGHGLEWIGDIFPGSGNIHYNEKFKGKATLTADKSSSTAYMQLSSLTFEDSAVYFCARLRNWDEPMDYWGQGTTVTVSS
notes: also called bispecific protein of NG-1112
B8: human CD19 EC domain-anti-EpCAM-ScFv fusion protein (without a C-terminal tag) (other)
chain: PEEPLVVKVEEGDNAVLQCLKGTSDGPTQQLTWSRESPLKPFLKLSLGLPGLGIHMRPLAIWLFIFNVSQQMGGFYLCQPGPPSEKAWQPGWTVNVEGSGELFRWNVSDLGGLGCGLKNRSSEGPSSPSGKLMSPKLYVWAKDRPEIWEGEPPCVPPRDSLNQSLSQDLTMAPGSTLWLSCGVPPDSVSRGPLSWTHVHPKGPKSLLSLELKDDRPARDMWVMETGLLLPRATAQDAGKYYCHRGNLTMSFHLEITARPVLWHWLLRTGGWKGGGGSELVMTQSPSSLTVTAGEKVTMSCKSSQSLLNSGNQKNYLTWYQQKPGQPPKLLIYWASTRESGVPDRFTGSGSGTDFTLTISSVQAEDLAVYYCQNDYSYPLTFGAGTKLEIKGGGGSGGGGSGGGGSEVQLLEQSGAELVRPGTSVKISCKASGYAFTNYWLGWVKQRPGHGLEWIGDIFPGSGNIHYNEKFKGKATLTADKSSSTAYMQLSSLTFEDSAVYFCARLRNWDEPMDYWGQGTTVTVSS
notes: also called bispecific protein of NG-1110

Target: T1, EpCAM
Test: flow cytometry, supernatant of transfected A549 cells on fresh A549 cells
Method: These plasmids were transfected into A549 human lung tumour cells and cells cultured for 72 hours. Cell culture supernatants (SN) containing secreted bispecific proteins were collected and added to fresh untransfected A549 cells in suspension and incubated for 1.5 hours at room temperature. During this time, the bispecific proteins present in the SN can bind to the A549 cells through their anti-EpCAM ScFv or anti-HER2 ScFV portion. […] For designs having CD19 as CAR-T target, the CD19 extracellular domain portion of the protein was detected by flow cytometry using an anti-CD19 antibody.

Row | Binder | binding result
1 | B1 | binds
2 | B2 | binds
3 | B3 | binds
4 | B4 | binds
5 | B5 | binds
6 | B6 | binds
7 | B7 | no binding
8 | B8 | no binding
